One substance from article PMC6116203 can be followed below.

The assay deals with R1 pyocin fiber PLES_06171 fragment (residues 323–701) (Pseudomonas aeruginosa LESB58). Briefly: crystal structure.

The term stoichiometry N denotes a count of units in the complex or per binding partner. With “R1 pyocin fiber PLES_06171 fragment (residues 323–701) (domain or fragment)”, the stoichiometry N turned out to be 3.
